# Results: the supplement of paper PMC9732359
# ± gives the uncertainty stated by the source.
# Test: protein stability index of a GFP-peptide fusion (yeast GPS) (PSI 1-4); higher = more stable; sorted into four equal gates, so the index is relative within each strain
# How it was run: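 Mid-log yeast cultures in leucine-free medium, carrying a pooled plasmid library, were sorted into four equal gates by their GFP/Cherry fluorescence ratio. Each plasmid expressed Cherry along with GFP fused upstream of a tiled 17-residue yeast protein peptide. Plasmids recovered from each gate were PCR-amplified and Illumina-sequenced, with reads assigned to strains by barcodes. The protein stability index was obtained by summing each gate's read frequency weighted by its gate number.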
Sequence,protein stability index (doa10∆),protein stability index (pdr5∆),protein stability index (san1∆),protein stability index (ubr1∆)
IRDLEKLYDKTENDIKA [RPT4],2.66 ± 0.18,2.6 ± 0.21,1.91 ± 0.22,2.43 ± 0.22
LLAEYDNIYRNLQKIDK [MED4],2.4 ± 0.048,2.69 ± 0.042,2.61 ± 0.05,2.32 ± 0.028
FLFAPELGAINLHALSM [SWI1],1.84 ± 0.087,2.05 ± 0.08,2.49 ± 0.12,2.17 ± 0.056
TKKLIQKTVFDELCKLV [SRP54],1.1 ± 0.11,1.51 ± 0.096,1.25 ± 0.18,1.11 ± 0.095
MVQQLSLFGSIGDDGYD [SRB5],3.17 ± 0.1,3.26 ± 0.13,3.16 ± 0.057,3.47 ± 0.085
ECGTGTTIHTFNRKENP [RPN14],2.11 ± 0.18,2.5 ± 0.1,2.21 ± 0.12,2.05 ± 0.13
GENIDADNDGPRINNIS [SNF2],3.44 ± 0.09,3.53 ± 0.11,3.28 ± 0.065,3.02 ± 0.09
ALTKFEASQVTEKQRKK [RPL35A],3.2 ± 0.27,2.57 ± 0.1,3.1 ± 0.064,3.17 ± 0.061
SIYDKWTDPNLKSSLAD [RPN1],2.99 ± 0.1,2.96 ± 0.067,2.88 ± 0.062,3.19 ± 0.054
PSPKKVAIDQDKITLHD [SIR4],2.36 ± 0.064,2.53 ± 0.064,2.27 ± 0.079,2.88 ± 0.05
DPVLDWRKSDRELTKNI [SIR4],2.89 ± 0.096,2.2 ± 0.083,2.52 ± 0.16,2.26 ± 0.08
ELISLRKILESSNIVNE [YIL149C/MLP2],2.17 ± 0.089,2.53 ± 0.068,2.33 ± 0.064,2.12 ± 0.1
IKIVYALTTIKGVGRRY [RPS18A],1.87 ± 0.12,1.95 ± 0.078,2.06 ± 0.17,1.61 ± 0.075
DTYRTLMEEIESLKKEL [YIL149C/MLP2],3.16 ± 0.1,3.36 ± 0.092,3.4 ± 0.07,3.35 ± 0.068
ELDPECQLQNSDNSEEE [RRP43],3.14 ± 0.075,2.95 ± 0.066,2.94 ± 0.054,3 ± 0.063
ILTSKVNAIKNEVKEWA [DSN1],2.64 ± 0.09,2.66 ± 0.094,3.07 ± 0.072,2.82 ± 0.08
FAGVASMNVTLGVPRIK [RPO31],2.82 ± 0.095,2.78 ± 0.086,2.94 ± 0.079,2.76 ± 0.064
EKDAVSVFGFRTQFGGG [RPS24A],1.92 ± 0.068,2.09 ± 0.094,2 ± 0.14,1.93 ± 0.064
ELDKREDMIDQVSKKLS [SMC3],3.12 ± 0.061,3 ± 0.082,2.93 ± 0.075,2.81 ± 0.096
SFVHGVVGQLFQIDNDN [SMC2],3.11 ± 0.16,3.13 ± 0.12,3.13 ± 0.068,3.25 ± 0.13
ISKRKEELEEEFRKKLK [YIL149C/MLP2],3.49 ± 0.11,3.35 ± 0.1,3.06 ± 0.089,3.67 ± 0.11
ASDGGLYVPHSENRFPG [RPL5],2.19 ± 0.1,2.61 ± 0.079,2.93 ± 0.095,2.92 ± 0.057
LPTRGTLESLENLVVAD [COR1],2.83 ± 0.059,3.04 ± 0.053,2.84 ± 0.057,2.89 ± 0.042
KRKLDIGKDTFVTRKSR [PRP8],2.93 ± 0.079,3.05 ± 0.057,2.91 ± 0.068,3.24 ± 0.043
AESEWNGVNVQTLKGVG [RPC37],1.23 ± 0.075,1.79 ± 0.14,–,1.13 ± 0.18
MRSKLEKLTLVTLSEIY [CSN9],1.56 ± 0.05,1.79 ± 0.035,1.79 ± 0.07,1.79 ± 0.051
KLNKKLQHLRSRCHLVT [SRP68],3.23 ± 0.11,3.34 ± 0.09,3.3 ± 0.039,3.27 ± 0.077

Sequence,protein stability index (doa10∆),protein stability index (pdr5∆),protein stability index (san1∆),protein stability index (ubr1∆)
QPDANKKKRSRTSATRE [ISW2],3.46 ± 0.14,3.38 ± 0.079,3.5 ± 0.057,3.16 ± 0.1
QVLNRYTYSSTLSHLRR [RPB2],2.88 ± 0.043,2.83 ± 0.041,2.77 ± 0.041,2.81 ± 0.03
LPLPPSVEWMKVSPSMC [SIN4],1.75 ± 0.055,1.71 ± 0.05,1.69 ± 0.09,1.55 ± 0.063
NNHNDSNRLHPPDIHPN [GRR1],2.76 ± 0.046,2.82 ± 0.044,2.8 ± 0.039,2.77 ± 0.035
LRGSLLSRKPSDNKKRS [RPC82],2.96 ± 0.13,3.6 ± 0.14,3.27 ± 0.1,3.01 ± 0.13
ISWCSLSETNGLHKFVK [PRE10],2.38 ± 0.089,2.73 ± 0.12,2.82 ± 0.11,2.44 ± 0.11
QQQQIQVPLQQTQAIAQ [YGR119C/NUP57],2.61 ± 0.061,2.82 ± 0.048,2.88 ± 0.039,2.885 ± 0.028
SLMDTLITPAVRNTAPN [YCG1],1.6 ± 0.061,1.73 ± 0.082,1.26 ± 0.19,1.92 ± 0.058
PGFQLPNRITLTDHRKE [SRB8],2.79 ± 0.079,2.98 ± 0.084,3.14 ± 0.069,3.22 ± 0.067
DISAMQPVNPKPFLKGL [SMX3],3.12 ± 0.067,3.18 ± 0.068,3.2 ± 0.051,3.22 ± 0.053
RRLPEDESYARAYRIIR [QCR7],2.81 ± 0.056,2.72 ± 0.061,2.53 ± 0.043,2.42 ± 0.043
LRYVIMKNPDVEFCGYS [RPC19],2.2 ± 0.14,2.07 ± 0.081,2.3 ± 0.15,2.87 ± 0.091
PSENDVFYRMQQLRRAL [RPO31],2.03 ± 0.056,1.94 ± 0.046,2.5 ± 0.1,2.14 ± 0.067
VKYINFGKTVKDGPFYT [RPC31],3 ± 0.1,2.84 ± 0.085,2.35 ± 0.061,2.29 ± 0.044
DKINKYSLIRETNGYDP [SNF5],1.51 ± 0.086,1.62 ± 0.12,1.92 ± 0.2,1.23 ± 0.19
ELENSSPELKAELRPLQ [RPS7A],3.04 ± 0.24,3.53 ± 0.11,2.97 ± 0.15,3.64 ± 0.15
YMDCLLYDLRASYAKIE [SNU114],1.84 ± 0.074,2.32 ± 0.076,1.81 ± 0.095,1.74 ± 0.092
EHEEKEKERETNKKGIK [RPN2],3.32 ± 0.24,3.36 ± 0.1,3.33 ± 0.16,3.4 ± 0.25
NNNNNNNNNSTRPQMPS [GRR1],2.891 ± 0.019,3.041 ± 0.017,3.062 ± 0.018,3.027 ± 0.018
GEIEIKPNEEEELGFWD [RPN13],3.15 ± 0.13,3.19 ± 0.097,3.25 ± 0.074,3.24 ± 0.094
QLTSLEKDCSLRAIEKN [YIL149C/MLP2],2.58 ± 0.068,2.8 ± 0.064,2.98 ± 0.058,3.06 ± 0.047
ADDEKSDEEEVTEMSNN [BRR2],3 ± 0.06,3.02 ± 0.042,2.84 ± 0.054,3.1 ± 0.048
VLPKIFNSVKSFDEWFN [SNF2],2.83 ± 0.18,2.43 ± 0.078,1.55 ± 0.2,1.77 ± 0.077
PAGQATQKRTHVLKKNP [RPL4A],2.95 ± 0.22,3.21 ± 0.21,3.28 ± 0.22,2.74 ± 0.14
ESDTGLAPSHLWDIMGD [RPT1],2.91 ± 0.16,–,3.06 ± 0.12,–
VAIQQGDIKPEFSPRLH [YML103C/NUP188],2.45 ± 0.11,2.84 ± 0.096,3.07 ± 0.099,2.83 ± 0.068
